IntAct's records for PubMed 16407977

B1: Transient receptor potential cation channel subfamily M member 7 (Mus musculus), Q923J1 (parent)
chain: MSQKSWIESTLTKRECVYIIPSSKDPHRCLPGCQICQQLVRCFCGRLVKQHACFTASLAMKYSDVKLGEHFNQAIEEWSVEKHTEQSPTDAYGVINFQGGSHSYRAKYVRLSYDTKPEIILQLLLKEWQMELPKLVISVHGGMQKFELHPRIKQLLGKGLIKAAVTTGAWILTGGVNTGVAKHVGDALKEHASRSSRKICTIGIAPWGVIENRNDLVGRDVVAPYQTLLNPLSKLNVLNNLHSHFILVDDGTVGKYGAEVRLRRELEKTINQQRIHARIGQGVPVVALIFEGGPNVILTVLEYLQESPPVPVVVCEGTGRAADLLAYIHKQTEEGGNLPDAAEPDIISTIKKTFNFGQSEAVHLFQTMMECMKKKELITVFHIGSEDHQDIDVAILTALLKGTNASAFDQLILTLAWDRVDIAKNHVFVYGQQWLVGSLEQAMLDALVMDRVSFVKLLIENGVSMHKFLTIPRLEELYNTKQGPTNPMLFHLIRDVKQGNLPPGYKITLIDIGLVIEYLMGGTYRCTYTRKRFRLIYNSLGGNNRRSGRNTSSSTPQLRKSHETFGNRADKKEKMRHNHFIKTAQPYRPKMDASMEEGKKKRTKDEIVDIDDPETKRFPYPLNELLIWACLMKRQVMARFLWQHGEESMAKALVACKIYRSMAYEAKQSDLVDDTSEELKQYSNDFGQLAVELLEQSFRQDETMAMKLLTYELKNWSNSTCLKLAVSSRLRPFVAHTCTQMLLSDMWMGRLNMRKNSWYKVILSILVPPAILMLEYKTKAEMSHIPQSQDAHQMTMEDSENNFHNITEEIPMEVFKEVKILDSSDGKNEMEIHIKSKKLPITRKFYAFYHAPIVKFWFNTLAYLGFLMLYTFVVLVKMEQLPSVQEWIVIAYIFTYAIEKVREVFMSEAGKISQKIKVWFSDYFNVSDTIAIISFFVGFGLRFGAKWNYINAYDNHVFVAGRLIYCLNIIFWYVRLLDFLAVNQQAGPYVMMIGKMVANMFYIVVIMALVLLSFGVPRKAILYPHEEPSWSLAKDIVFHPYWMIFGEVYAYEIDVCANDSTLPTICGPGTWLTPFLQAVYLFVQYIIMVNLLIAFFNNVYLQVKAISNIVWKYQRYHFIMAYHEKPVLPPPLIILSHIVSLFCCVCKRRKKDKTSDGPKLFLTEEDQKKLHDFEEQCVEMYFDEKDDKFNSGSEERIRVTFERVEQMSIQIKEVGDRVNYIKRSLQSLDSQIGHLQDLSALTVDTLKTLTAQKASEASKVHNEITRELSISKHLAQNLIDDVPVRPLWKKPSAVNTLSSSLPQGDRESNNPFLCNIFMKDEKDPQYNLFGQDLPVIPQRKEFNIPEAGSSCGALFPSAVSPPELRQRRHGVEMLKIFNKNQKLGSSPNSSPHMSSPPTKFSVSTPSQPSCKSHLESTTKDQEPIFYKAAEGDNIEFGAFVGHRDSMDLQRFKETSNKIRELLSNDTPENTLKHVGAAGYSECCKTSTSLHSVQAESCSRRASTEDSPEVDSKAALLPDWLRDRPSNREMPSEGGTLNGLASPFKPVLDTNYYYSAVERNNLMRLSQSIPFVPVPPRGEPVTVYRLEESSPSILNNSMSSWSQLGLCAKIEFLSKEEMGGGLRRAVKVLCTWSEHDILKSGHLYIIKSFLPEVINTWSSIYKEDTVLHLCLREIQQQRAAQKLTFAFNQMKPKSIPYSPRFLEVFLLYCHSAGQWFAVEECMTGEFRKYNNNNGDEIIPTNTLEEIMLAFSHWTYEYTRGELLVLDLQGVGENLTDPSVIKAEEKRSCDMVFGPANLGEDAIKNFRAKHHCNSCCRKLKLPDLKRNDYTPDKIIFPQDESSDLNLQSGNSTKESEATNSVRLML

Variants of: B1
Details: with myh9_mouse Myh9, Q8VDD5
myh9_mouse Myh9, Q8VDD5, sequence (Q8VDD5 whole entry): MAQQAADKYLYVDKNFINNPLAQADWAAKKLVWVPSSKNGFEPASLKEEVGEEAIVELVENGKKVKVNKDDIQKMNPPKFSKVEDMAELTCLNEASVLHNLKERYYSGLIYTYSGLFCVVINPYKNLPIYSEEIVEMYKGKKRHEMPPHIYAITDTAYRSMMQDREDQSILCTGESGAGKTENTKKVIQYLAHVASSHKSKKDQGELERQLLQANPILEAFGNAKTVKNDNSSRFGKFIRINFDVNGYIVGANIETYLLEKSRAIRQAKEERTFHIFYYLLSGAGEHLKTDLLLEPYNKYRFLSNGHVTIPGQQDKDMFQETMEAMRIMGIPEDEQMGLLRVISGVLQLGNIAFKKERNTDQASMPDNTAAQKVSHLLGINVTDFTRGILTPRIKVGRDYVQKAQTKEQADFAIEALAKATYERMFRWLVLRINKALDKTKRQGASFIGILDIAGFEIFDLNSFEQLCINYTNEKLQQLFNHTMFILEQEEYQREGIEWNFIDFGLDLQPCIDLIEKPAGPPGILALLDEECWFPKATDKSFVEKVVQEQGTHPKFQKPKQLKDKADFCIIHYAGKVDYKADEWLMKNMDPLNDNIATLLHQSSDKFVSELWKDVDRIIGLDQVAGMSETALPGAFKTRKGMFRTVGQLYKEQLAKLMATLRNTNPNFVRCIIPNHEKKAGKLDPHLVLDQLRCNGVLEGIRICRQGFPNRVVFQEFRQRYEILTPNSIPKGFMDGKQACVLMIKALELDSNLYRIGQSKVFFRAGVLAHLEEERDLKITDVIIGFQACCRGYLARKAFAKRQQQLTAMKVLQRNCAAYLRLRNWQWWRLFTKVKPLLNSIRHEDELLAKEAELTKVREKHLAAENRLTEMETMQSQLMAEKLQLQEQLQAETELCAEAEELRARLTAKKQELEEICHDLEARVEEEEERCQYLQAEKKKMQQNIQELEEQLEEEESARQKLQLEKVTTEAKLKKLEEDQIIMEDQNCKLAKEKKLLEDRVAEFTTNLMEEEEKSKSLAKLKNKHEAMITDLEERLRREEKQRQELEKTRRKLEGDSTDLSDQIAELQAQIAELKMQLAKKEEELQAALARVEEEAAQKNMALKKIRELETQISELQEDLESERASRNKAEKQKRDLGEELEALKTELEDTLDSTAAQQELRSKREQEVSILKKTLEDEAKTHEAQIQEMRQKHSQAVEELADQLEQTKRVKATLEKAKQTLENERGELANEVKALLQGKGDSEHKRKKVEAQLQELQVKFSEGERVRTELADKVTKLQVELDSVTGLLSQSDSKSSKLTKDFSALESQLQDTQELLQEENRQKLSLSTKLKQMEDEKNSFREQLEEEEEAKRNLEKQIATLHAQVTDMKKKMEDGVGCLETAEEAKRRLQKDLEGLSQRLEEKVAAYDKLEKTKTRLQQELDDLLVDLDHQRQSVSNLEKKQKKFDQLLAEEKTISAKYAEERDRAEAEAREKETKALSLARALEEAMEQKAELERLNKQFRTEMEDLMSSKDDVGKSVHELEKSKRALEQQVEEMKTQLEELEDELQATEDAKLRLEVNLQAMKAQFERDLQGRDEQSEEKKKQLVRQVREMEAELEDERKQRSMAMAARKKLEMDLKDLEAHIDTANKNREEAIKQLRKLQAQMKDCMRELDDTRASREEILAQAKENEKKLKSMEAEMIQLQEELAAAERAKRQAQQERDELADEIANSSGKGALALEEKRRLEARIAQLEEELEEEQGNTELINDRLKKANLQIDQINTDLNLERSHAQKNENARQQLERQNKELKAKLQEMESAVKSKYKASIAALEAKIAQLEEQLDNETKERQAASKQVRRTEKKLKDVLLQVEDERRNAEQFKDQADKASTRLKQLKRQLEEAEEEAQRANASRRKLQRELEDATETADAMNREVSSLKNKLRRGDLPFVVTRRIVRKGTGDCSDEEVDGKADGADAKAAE

| effect of a mutation on the interaction | Variant |
| --- | --- |
| decreasing interaction | D1775A |
